The data set deals with T1, human recombinant LAP β1 (R&D), not treated with protease.
T1 chain: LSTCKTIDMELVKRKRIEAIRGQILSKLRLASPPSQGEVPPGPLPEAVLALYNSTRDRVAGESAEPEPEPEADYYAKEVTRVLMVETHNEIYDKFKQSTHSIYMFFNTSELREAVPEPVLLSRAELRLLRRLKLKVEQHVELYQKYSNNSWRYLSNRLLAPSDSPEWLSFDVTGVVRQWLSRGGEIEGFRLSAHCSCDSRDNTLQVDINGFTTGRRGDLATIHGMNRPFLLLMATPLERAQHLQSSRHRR

B1: human matrix metalloprotease 9 (MMP9) (Alexis), APMA-activated (protein)
chain: MRTPRCGVPDLGRFQTFEGDLKWHHHNITYWIQNYSEDLPRAVIDDAFARAFALWSAVTPLTFTRVYSRDADIVIQFGVAEHGDGYPFDGKDGLLAHAFPPGPGIQGDAHFDDDELWSLGKGVVVPTRFGNADGAACHFPFIFEGRSYSACTTDGRSDGLPWCSTTANYDTDDRFGFCPSERLYTQDGNADGKPCQFPFIFQGQSYSACTTDGRSDGYRWCATTANYDRDKLFGFCPTRADSTVMGGNSAGELCVFPFTFLGKEYSTCTSEGRGDGRLWCATTSNFDSDKKWGFCPDQGYSLFLVAAHEFGHALGLDHSSVPEALMYPMYRFTEGPPLHKDDVNGIRHLYGPRPEPEPRPPTTTTPQPTAPPTVCPTGPPTVHPSERPTAGPTGPPSAGPTGPPTAGPSTATTVPLSPVDDACNVNIFDAIAEIGNQLYLFKDGKYWRFSEGRGSRPQGPFLIADKWPALPRKLDSVFEERLSKKLFFFSGRQVWVYTGASVLGPRRLDKLGLGADVAQVTGALRSGRGKMLLFSGRRLWRFDVKAQMVDPRSASEVDRMFPGVPLDTHDVFQYREKAYFCQDRFYWRVSSRSELNQVDQVGYVTYDILQCPED
On to B1, for which the “degradation of LAP β1 (SDS-PAGE, silver staining)” value is “degradation of LAP could not be confirmed”.

B2: human matrix metalloprotease 2 (MMP2) (Alexis), APMA-activated (protein)
chain: YNFFPRKPKWDKNQITYRIIGYTPDLDPETVDDAFARAFQVWSDVTPLRFSRIHDGEADIMINFGRWEHGDGYPFDGKDGLLAHAFAPGTGVGGDSHFDDDELWTLGEGQVVRVKYGNADGEYCKFPFLFNGKEYNSCTDTGRSDGFLWCSTTYNFEKDGKYGFCPHEALFTMGGNAEGQPCKFPFRFQGTSYDSCTTEGRTDGYRWCGTTEDYDRDKKYGFCPETAMSTVGGNSEGAPCVFPFTFLGNKYESCTSAGRSDGKMWCATTANYDDDRKWGFCPDQGYSLFLVAAHEFGHAMGLEHSQDPGALMAPIYTYTKNFRLSQDDIKGIQELYGASPDIDLGTGPTPTLGPVTPEICKQDIVFDGIAQIRGEIFFFKDRFIWRTVTPRDKPMGPLLVATFWPELPEKIDAVYEAPQEEKAVFFAGNEYWIYSASTLERGYPKPLTSLGLPPDVQRVDAAFNWSKNKKTYIFAGDKFWRYNEVKKKMDPGFPKLIADAWNAIPDNLDAVVDLQGGGHSYFFKGAYYLKLENQSLKSVKFGSIKSDWLGC
On to B2, for which the “degradation of LAP β1 (SDS-PAGE, silver staining)” value is “degradation of LAP could not be confirmed”.

B3: human blood-derived plasmin (PLN) (Sigma) (protein)
chain: KVYLSECKTGNGKNYRGTMSKTKNGITCQKWSSTSPHRPRFSPATHPSEGLEENYCRNPDNDPQGPWCYTTDPEKRYDYCDILECEEECMHCSGENYDGKISKTMSGLECQAWDSQSPHAHGYIPSKFPNKNLKKNYCRNPDRELRPWCFTTDPNKRWELCDIPRCTTPPPSSGPTYQCLKGTGENYRGNVAVTVSGHTCQHWSAQTPHTHNRTPENFPCKNLDENYCRNPDGKRAPWCHTTNSQVRWEYCKIPSCDSSPVSTEQLAPTAPPELTPVVQDCYHGDGQSYRGTSSTTTTGKKCQSWSSMTPHRHQKTPENYPNAGLTMNYCRNPDADKGPWCFTTDPSVRWEYCNLKKCSGTEASVVAPPPVVLLPDVETPSEEDCMFGNGKGYRGKRATTVTGTPCQDWAAQEPHRHSIFTPETNPRAGLEKNYCRNPDGDVGGPWCYTTNPRKLYDYCDVPQCAAPSFDCGKPQVEPKKCPGRVVGGCVAHPHSWPWQVSLRTRFGMHFCGGTLISPEWVLTAAHCLEKSPRPSSYKVILGAHQEVNLEPHVQEIEVSRLFLEPTRKDIALLKLSSPAVITDKVIPACLPSPNYVVADRTECFITGWGETQGTFGAGLLKEAQLPVIENKVCNRYEFLNGRVQSTELCAGHLAGGTDSCQGDSGGPLVCFEKDKYILQGVTSWGLGCARPNKPGVYVRVSRFVTWIEGVMRNN
Turning to B3, the “limited degradation on longer incubation; cleavage sites by N-terminal sequencing” value was “plasmin successively cleaved between 85 Arg and 86 Asp, and between 106 Lys and 107 Glu”; the “limited degradation; cleavage site by N-terminal sequencing of the fragments” value was “plasmin specifically cleaves between 56 Lys and 57 Leu of latent TGF-β”.
